Data on 2 molecules can be found in doi:10.1101/2020.05.30.125013.

Assay [1] addresses MlaD from Acinetobacter baumannii (Acinetobacter baumannii) (UniProt V5V921). Description: cryo-EM structure.
The target of assay [2] is MlaF from Acinetobacter baumannii (Acinetobacter baumannii). Briefly: cryo-EM structure.

As a reminder, the stoichiometry N is a count of units in the complex or per binding partner.

On to “MlaD from Acinetobacter baumannii (from UniProt V5V921 1-226) (natural protein)”, for which the stoichiometry N in assay [1] was found to be 6.

B1: MlaB from Acinetobacter baumannii (natural protein)
chain: MVQYLNQELVVSGKIDFENAEQQYQAGLAIIKKQTSFPLIVDLKQLEHGNTLALAVLVQWLRQTPQKSGLHFKNVPEKMLKIIQACHLQEDLHLV
B1: the percent of particles with MlaB bound to both MlaF copies in assay [2] was 50%.
